Results reported in PMC4347645.

Molecular target: desmoplakin (DP), endogenous (human (endogenous in HEK 293 and SCC9)) (UniProt P15924)
Assay: proximity ligation

Chain of desmoplakin (DP), endogenous (human (endogenous in HEK 293 and SCC9)) (P15924 whole entry): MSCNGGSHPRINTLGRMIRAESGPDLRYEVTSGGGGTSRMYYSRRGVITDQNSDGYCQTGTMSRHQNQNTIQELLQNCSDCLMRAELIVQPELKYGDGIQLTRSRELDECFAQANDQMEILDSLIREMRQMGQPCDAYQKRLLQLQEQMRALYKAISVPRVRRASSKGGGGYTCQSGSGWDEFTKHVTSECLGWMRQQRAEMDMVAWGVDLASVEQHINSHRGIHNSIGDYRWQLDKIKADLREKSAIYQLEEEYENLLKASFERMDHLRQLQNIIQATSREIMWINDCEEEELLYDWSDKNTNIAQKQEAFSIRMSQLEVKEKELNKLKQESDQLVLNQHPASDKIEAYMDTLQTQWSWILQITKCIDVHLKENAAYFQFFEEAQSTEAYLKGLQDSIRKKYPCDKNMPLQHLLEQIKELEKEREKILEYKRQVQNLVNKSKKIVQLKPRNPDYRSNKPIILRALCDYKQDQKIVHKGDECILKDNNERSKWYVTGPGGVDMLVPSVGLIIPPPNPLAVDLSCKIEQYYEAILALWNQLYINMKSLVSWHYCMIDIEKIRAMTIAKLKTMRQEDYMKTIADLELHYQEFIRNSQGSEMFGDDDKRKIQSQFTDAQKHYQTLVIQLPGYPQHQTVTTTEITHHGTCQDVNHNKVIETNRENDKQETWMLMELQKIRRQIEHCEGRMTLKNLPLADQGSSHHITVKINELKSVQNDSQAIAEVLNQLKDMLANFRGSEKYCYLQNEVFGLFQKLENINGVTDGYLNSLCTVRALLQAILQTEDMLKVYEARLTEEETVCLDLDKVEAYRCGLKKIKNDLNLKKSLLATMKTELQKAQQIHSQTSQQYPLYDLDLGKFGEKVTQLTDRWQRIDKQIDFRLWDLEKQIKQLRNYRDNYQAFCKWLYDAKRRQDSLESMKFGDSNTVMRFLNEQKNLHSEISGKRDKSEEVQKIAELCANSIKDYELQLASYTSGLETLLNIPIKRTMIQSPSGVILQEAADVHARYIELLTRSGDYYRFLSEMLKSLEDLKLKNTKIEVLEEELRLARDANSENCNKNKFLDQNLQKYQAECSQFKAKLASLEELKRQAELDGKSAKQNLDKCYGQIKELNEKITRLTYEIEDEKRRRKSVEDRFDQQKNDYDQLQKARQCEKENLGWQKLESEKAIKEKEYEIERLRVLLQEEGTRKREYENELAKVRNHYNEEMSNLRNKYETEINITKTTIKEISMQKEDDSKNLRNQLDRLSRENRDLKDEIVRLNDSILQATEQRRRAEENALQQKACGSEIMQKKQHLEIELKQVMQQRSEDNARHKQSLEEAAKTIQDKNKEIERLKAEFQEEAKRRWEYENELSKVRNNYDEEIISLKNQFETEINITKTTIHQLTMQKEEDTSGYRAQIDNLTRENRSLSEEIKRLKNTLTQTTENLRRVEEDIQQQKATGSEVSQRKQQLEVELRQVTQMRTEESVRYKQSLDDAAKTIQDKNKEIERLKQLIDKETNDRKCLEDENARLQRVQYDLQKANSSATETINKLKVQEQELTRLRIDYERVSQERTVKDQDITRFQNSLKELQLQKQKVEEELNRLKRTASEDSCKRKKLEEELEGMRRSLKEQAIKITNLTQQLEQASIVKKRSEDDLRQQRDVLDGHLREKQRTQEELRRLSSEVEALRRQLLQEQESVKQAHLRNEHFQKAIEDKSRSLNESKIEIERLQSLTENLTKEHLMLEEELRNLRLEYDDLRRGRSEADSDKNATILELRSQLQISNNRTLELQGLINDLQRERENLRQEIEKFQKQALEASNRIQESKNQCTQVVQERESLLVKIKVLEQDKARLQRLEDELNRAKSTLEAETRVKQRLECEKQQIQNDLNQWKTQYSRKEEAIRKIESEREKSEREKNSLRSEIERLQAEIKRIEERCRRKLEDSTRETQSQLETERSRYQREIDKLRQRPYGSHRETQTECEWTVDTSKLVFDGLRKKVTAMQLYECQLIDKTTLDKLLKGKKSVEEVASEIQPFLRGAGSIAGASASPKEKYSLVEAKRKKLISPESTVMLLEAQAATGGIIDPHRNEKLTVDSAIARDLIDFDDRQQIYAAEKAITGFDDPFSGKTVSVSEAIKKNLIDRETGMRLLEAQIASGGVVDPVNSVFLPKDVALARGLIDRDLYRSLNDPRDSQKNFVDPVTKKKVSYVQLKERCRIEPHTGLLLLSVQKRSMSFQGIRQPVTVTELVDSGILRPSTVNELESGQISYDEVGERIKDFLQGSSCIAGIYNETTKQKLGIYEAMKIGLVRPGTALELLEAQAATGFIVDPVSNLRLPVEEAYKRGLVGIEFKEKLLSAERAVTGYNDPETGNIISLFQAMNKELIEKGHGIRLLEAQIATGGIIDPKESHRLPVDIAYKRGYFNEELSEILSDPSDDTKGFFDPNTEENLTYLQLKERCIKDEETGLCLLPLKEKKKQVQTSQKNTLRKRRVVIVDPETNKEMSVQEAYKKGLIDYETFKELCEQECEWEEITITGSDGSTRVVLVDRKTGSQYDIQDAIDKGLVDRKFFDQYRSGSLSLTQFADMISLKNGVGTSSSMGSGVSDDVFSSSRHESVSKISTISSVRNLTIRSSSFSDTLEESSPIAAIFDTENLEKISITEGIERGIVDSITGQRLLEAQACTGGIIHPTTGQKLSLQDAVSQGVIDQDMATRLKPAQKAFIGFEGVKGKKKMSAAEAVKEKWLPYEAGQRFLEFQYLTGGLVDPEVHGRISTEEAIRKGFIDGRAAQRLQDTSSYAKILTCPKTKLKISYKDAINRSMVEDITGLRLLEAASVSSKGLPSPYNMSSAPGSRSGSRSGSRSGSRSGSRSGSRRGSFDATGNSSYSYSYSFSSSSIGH
Chain of GSK3, endogenous in SCC9 cells (P49841 whole entry): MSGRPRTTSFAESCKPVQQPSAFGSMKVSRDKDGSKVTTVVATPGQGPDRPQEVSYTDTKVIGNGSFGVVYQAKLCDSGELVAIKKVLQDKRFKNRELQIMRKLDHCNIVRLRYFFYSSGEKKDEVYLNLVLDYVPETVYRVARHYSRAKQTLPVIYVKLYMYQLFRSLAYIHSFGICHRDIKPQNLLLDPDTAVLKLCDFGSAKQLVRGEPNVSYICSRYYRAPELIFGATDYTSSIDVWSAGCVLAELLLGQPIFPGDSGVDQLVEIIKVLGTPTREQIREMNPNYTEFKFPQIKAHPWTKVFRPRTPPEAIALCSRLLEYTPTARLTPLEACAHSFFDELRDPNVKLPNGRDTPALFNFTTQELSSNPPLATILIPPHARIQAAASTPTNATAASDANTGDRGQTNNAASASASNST

## GSK3, endogenous in SCC9 cells (from UniProt P49841 1-420) (enzyme)
  PLA fluorescent dots, fold over negative control antibody pairings: 20 fold
